Among the data in US20190062438A1 (CSL, published 2019) are Kd values, retold here.

Common to all, as to assay: SPR, kinetics, Fab over captured mutant
In general terms: In SPR one partner is held on a chip, and binding of the other changes the refractive index at the surface.

Experiment [1] addresses T1, shCD131 V104A (human, UniProt P32927 17-438).
T1 construct: C-terminal 6xHis
T1 sequence: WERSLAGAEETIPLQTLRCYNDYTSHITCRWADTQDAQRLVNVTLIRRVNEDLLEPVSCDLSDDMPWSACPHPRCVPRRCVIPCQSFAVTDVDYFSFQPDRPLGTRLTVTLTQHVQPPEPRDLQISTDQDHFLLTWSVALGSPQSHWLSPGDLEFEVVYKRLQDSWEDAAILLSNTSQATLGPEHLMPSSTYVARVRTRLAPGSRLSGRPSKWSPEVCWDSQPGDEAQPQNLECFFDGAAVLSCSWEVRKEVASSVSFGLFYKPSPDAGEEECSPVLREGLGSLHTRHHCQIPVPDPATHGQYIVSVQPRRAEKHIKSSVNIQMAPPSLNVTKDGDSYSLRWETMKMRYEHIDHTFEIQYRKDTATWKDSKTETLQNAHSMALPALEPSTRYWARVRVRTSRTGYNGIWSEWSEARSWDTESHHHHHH
How it is done: (§1) As shβc is a dimer, kinetics assays were performed with shβc captured on the sensor surface, and purified Fab injected as the analyte. Avidity effects were avoided by the use of Fab rather than whole IgG.
(§2) shCD131 was captured on spots 1 and 5 of each flow cell for 2 minutes at a concentration of 0.4 μg/ml. […] For some analysis purified Fab was injected over each flow cell for 3 minutes and dissociation was monitored for a further 10 minutes. Regeneration of the surface was performed after each cycle with a 40 second injection of 25 mM glycine, pH 2.0. The analysis was performed with Fabs at several concentrations between 100 and 0.31 nM, with each concentration analyzed twice and in random order. The analysis was performed at a flow rate of 30 μl/min in HBS-EP buffer (10 mM Hepes, 150 mM NaCl, 3 mM EDTA, 0.005% Tween 20, pH 7.4) at 37° C. Responses from spots 2 and 4 of each flow cell, (in which shβc was not captured, but otherwise treated identically), were subtracted from those of spots 1 and 5 respectively to produce reference subtracted data. Reference subtracted responses from a blank injection comprising buffer alone were subtracted from the resultant sensorgrams to produce double referenced data suitable for kinetic analysis. Double-referenced sensorgrams were fitted using non-linear regression to a model describing 1:1 kinetics, including a term for mass transport limitation. The Rₘₐₓ value was fitted locally to account for slight deviations in the level of sCD131 captured, with association rate (kₐ), dissociation rate (kd) and equilibrium dissociation constant (KD) fitted globally.
(§3) Mapping of the shCD131 epitope was performed by measurement of the affinity of Fabs for various alanine point mutants of shCD131 essentially as described above, with the following exceptions. Each shCD131 mutant was captured for 120 seconds at concentrations between 1 and 5 μg/ml. For kinetic analysis, purified recombinant Fabs were injected for 2 minutes, and dissociation was monitored for a further 2 minutes. […] Fab concentrations ranged from 16 μM to 3.9 nM in two-fold dilutions.

Experiment [2] deals with T2, shCD131 D369A (human, UniProt P32927 17-438).
T2 construct: C-terminal 6xHis
T2 sequence: T1 sequence with A88V, D353A
The method, then: as §1, §2, §3

Experiment [3] addresses T3, shCD131 E366A (human, UniProt P32927 17-438).
T3 construct: C-terminal 6xHis
T3 sequence: T1 sequence with A88V, E350A
How it is done: as §1, §2, §3

The target of experiment [4] is T4, shCD131 D107A (human, UniProt P32927 17-438).
T4 construct: C-terminal 6xHis
T4 sequence: T1 sequence with A88V, D91A
The method, then:
as §1, §2, §3

Residue numbers refer to the chain shown, from its start.

B1: 9A2 Fab (Fab, V domains shown)
VH: EVQLLESGGGLVQPGGSLRLSCAASGFTFSHYHMLWVRQAPGKGLEWVSSIRSSGGFTYYADSVKGRFTISRDNSKNTLYLQMNSLRAEDTAVYYCARFYDSFFDIWGQGTMVTVSS
VL: DIQMTQSPSSVSASVGDRVTITCRASQGISSWLAWYQQKPGKAPKLLIYAASSLQSGVPSRFSGSGSGTDFTLTISSLQPEDFATYYCQQANSFPITFGQGTRLEIKR
notes: also called recombinant Fab of 9A2
B1: the Kd (commonly the free concentration of one partner at which half of the binding sites on the other are occupied at equilibrium, for simple one-to-one binding) in experiment [1] is 0.117 µM; in experiment [2], 0.028 µM; in experiment [3] it was 0.032 µM; in experiment [4] it was 0.191 µM.
